Literature values, collected in publication PMC4589137.

Biological target: α-melanocyte stimulating hormone (α-MSH) (UniProt P01189)

Kd: 0.4 nM
Substance: melanocortin 1 receptor (MC1R) (from UniProt Q01727)
